From paper PMC5360526 (Hepatology (Baltimore, Md.), 2017)

Biological target: Recombinant human MATα1 (human, UniProt Q00266 1-395)
Assay: pull-down

Chain of Recombinant human MATα1 (Q00266 whole entry): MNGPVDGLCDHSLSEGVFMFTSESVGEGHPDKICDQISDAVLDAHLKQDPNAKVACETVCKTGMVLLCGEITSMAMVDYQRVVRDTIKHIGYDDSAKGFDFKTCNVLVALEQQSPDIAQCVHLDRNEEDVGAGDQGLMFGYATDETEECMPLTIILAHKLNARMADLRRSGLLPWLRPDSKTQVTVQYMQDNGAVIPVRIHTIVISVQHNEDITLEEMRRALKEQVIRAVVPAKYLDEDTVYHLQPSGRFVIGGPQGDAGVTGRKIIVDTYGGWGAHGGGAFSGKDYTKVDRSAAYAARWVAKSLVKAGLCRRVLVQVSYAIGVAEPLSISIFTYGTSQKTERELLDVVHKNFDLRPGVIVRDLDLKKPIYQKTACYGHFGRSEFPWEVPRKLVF

B1: Recombinant human PHB1 (natural protein, UniProt P35232 1-272, looked up)
chain: MAAKVFESIGKFGLALAVAGGVVNSALYNVDAGHRAVIFDRFRGVQDIVVGEGTHFLIPWVQKPIIFDCRSRPRNVPVITGSKDLQNVNITLRILFRPVASQLPRIFTSIGEDYDERVLPSITTEILKSVVARFDAGELITQRELVSRQVSDDLTERAATFGLILDDVSLTHLTFGKEFTEAVEAKQVAQQEAERARFVVEKAEQQKKAAIISAEGDSKAAELIANSLATAGDGLIELRKLEAAEDIAYQLSRSRNITYLPAGQSVLLQLPQ
B1: binds.
